According to US20080274976A1 (UNIVERSITY OF UTAH RESEARCH FOUNDATION, published 2008):
Where “and” joins values, the source holds several entries; their conditions need not be identical. Equal entries are not always repeated.

B1: Shaker K+ channel, wild type (other)
chain: MAAVAGLYGLGEDRQHRKKQQQQQQHQKEQLEQKEEQKKIAERKLQLREQQLQRNSLDGYGSLPKLSSQDEEGGAGHGFGGGPQHFEPIPHDHDFCERVVINVSGLRFETQLRTLNQFPDTLLGDPARRLRYFDPLRNEYFFDRSRPSFDAILYYYQSGGRLRRPVNVPLDVFSEEIKFYELGDQAINKFREDEGFIKEEERPLPDNEKQRKVWLLFEYPESSQAARVVAIISVFVILLSIVIFCLETLPEFKHYKVFNTTTNGTKIEEDEVPDITDPFFLIETLCIIWFTFELTVRFLACPNKLNFCRDVMNVIDIIAIIPYFITLATVVAEEEDTLNLPKAPVSPQDKSSNQAMSLAILRVIRLVRVFRIFKLSRHSKGLQILGRTLKASMRELGLLIFFLFIGVVLFSSAVYFAEAGSENSFFKSIPDAFWWAVVTMTTVGYGDMTPVGVWGKIVGSLCAIAGVLTIALPVPVIVSNFNYFYHRETDQEEMQSQNFNHVTSCPYLPGTLGQHMKKSSLSESSSDMMDLDDGVESTPGLTETHPGRSAVAPFLGAQQQQQQPVASSLSMSIDKQLQHPLQQLTQTQLYQQQQQQQQQQQNGFKQQQQQTQQQLQQQQSHTINASAAAATSGSGSSGLTMRHNNALAVSIETDV
notes: whole, on cells
B2: Shaker-Δ6-46 K+ channel (other)
chain: MAAVALREQQLQRNSLDGYGSLPKLSSQDEEGGAGHGFGGGPQHFEPIPHDHDFCERVVINVSGLRFETQLRTLNQFPDTLLGDPARRLRYFDPLRNEYFFDRSRPSFDAILYYYQSGGRLRRPVNVPLDVFSEEIKFYELGDQAINKFREDEGFIKEEERPLPDNEKQRKVWLLFEYPESSQAARVVAIISVFVILLSIVIFCLETLPEFKHYKVFNTTTNGTKIEEDEVPDITDPFFLIETLCIIWFTFELTVRFLACPNKLNFCRDVMNVIDIIAIIPYFITLATVVAEEEDTLNLPKAPVSPQDKSSNQAMSLAILRVIRLVRVFRIFKLSRHSKGLQILGRTLKASMRELGLLIFFLFIGVVLFSSAVYFAEAGSENSFFKSIPDAFWWAVVTMTTVGYGDMTPVGVWGKIVGSLCAIAGVLTIALPVPVIVSNFNYFYHRETDQEEMQSQNFNHVTSCPYLPGTLGQHMKKSSLSESSSDMMDLDDGVESTPGLTETHPGRSAVAPFLGAQQQQQQPVASSLSMSIDKQLQHPLQQLTQTQLYQQQQQQQQQQQNGFKQQQQQTQQQLQQQQSHTINASAAAATSGSGSSGLTMRHNNALAVSIETDV

How the values were obtained:
κM-conotoxin RIIIK [1] = molecular target: κM-conotoxin RIIIK (Conus radiatus); test: voltage clamp of channels expressed in Xenopus oocytes
κM-conotoxin RIIIK [2] = molecular target: κM-conotoxin RIIIK (Conus radiatus)

Binder | binding result (κM-conotoxin RIIIK [1]) | Kd (κM-conotoxin RIIIK [2])
B1 | binds | –
B2 | – | 3330 nM and 1260 nM
